We go through 8 molecules from US20160194391A1 (AstraZeneca / MedImmune, published 2016).

Several values for one entry are separate records, joined by “and”; a condition that tells them apart may be missing. Equal values may be shown once.

The target of assay [1] is T1, human IL-6 (human, UniProt P05231 30-212). Kind of assay: cell-based or functional assay.
For assay [2], the target named is T2, 3×FLAG-IL-6 (human).
T2 construct: it may hold the pre-pro-trypsin leader
Put plainly: SPR, 3×FLAG-IL-6 captured by anti-FLAG M2 on protein G, scFv as analyte (1-100 nM). The method, then: Equilibrium constants for scFvs were determined as previously described; however, the protocol was modified so that an epitope tagged IL-6 was captured on the chip surface and the dissociation of anti-IL-6 scFvs from IL-6 was monitored. Briefly, anti-FLAG® M2 antibody (200472, Agilent Technologies, Santa Clara, Calif.) was bound to Protein G, and then 3×FLAG-IL-6 was captured by the anti-FLAG antibody. The anti-IL-6 scFvs were assayed over a range of concentrations between 1 and 100 nM.
Anti IL-6 scFvs, humanized using the one step method, retained IL-6 neutralization activity when expressed in mammalian cells, as shown for 13A8 (FIG. 11A and FIG. 11B), 28D2 and 9C8 v3-1 (FIG. 11C).
On the technique in general: Surface plasmon resonance follows binding to a sensor surface in real time, without labels.

The target of assay [3] is T2, 3×FLAG-IL-6. The description is as above. The source holds these as a separate data set.
The target of assay [4] is T2, 3×FLAG-IL-6. Kind of assay: SPR, 3×FLAG-IL-6 captured by anti-FLAG M2 on protein G, scFv as analyte.
Assay [5] concerns the target T1, human IL-6. Kind of assay: cell-based or functional assay. The source holds these as a separate data set.
Assay [6] addresses T1, human IL-6. Put plainly: cell-based or functional assay. The source holds these as a separate data set.
Assay [7] concerns the target T3, monkey IL-12 (macaque) (macaque, UniProt P48091 23-219; P48095 23-328).
T3 sequence (looked up) 1: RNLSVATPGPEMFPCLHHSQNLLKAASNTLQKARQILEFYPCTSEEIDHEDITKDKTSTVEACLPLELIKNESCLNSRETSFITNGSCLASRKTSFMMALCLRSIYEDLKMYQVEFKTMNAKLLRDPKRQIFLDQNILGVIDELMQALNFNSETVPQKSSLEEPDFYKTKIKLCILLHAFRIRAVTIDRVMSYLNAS
T3 sequence (looked up) 2: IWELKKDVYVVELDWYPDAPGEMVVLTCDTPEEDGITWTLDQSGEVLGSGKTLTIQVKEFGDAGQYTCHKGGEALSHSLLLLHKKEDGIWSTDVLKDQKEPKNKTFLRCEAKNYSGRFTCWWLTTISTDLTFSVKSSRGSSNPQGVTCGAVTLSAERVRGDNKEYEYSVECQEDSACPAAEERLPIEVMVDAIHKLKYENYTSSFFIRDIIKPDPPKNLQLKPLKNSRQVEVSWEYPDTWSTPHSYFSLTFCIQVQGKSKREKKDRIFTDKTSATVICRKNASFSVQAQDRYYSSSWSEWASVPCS
Put plainly: cell-based or functional assay.

Assay [8] addresses T3, monkey IL-12 (macaque). Put plainly: cell-based or functional assay. This is another data set of the same source.
Assay [9] addresses T4, human dimeric IL-23 (eBiosciences 34-8239) (human, UniProt P29460 23-328; Q9NPF7 20-189).
T4 construct: Baculovirus-derived heterodimer; the bioassay used eBioscience 14-8239 or Humanzyme HZ-1049; also called heterodimeric recombinant IL-23; eBio IL23
T4 sequence (looked up) 1: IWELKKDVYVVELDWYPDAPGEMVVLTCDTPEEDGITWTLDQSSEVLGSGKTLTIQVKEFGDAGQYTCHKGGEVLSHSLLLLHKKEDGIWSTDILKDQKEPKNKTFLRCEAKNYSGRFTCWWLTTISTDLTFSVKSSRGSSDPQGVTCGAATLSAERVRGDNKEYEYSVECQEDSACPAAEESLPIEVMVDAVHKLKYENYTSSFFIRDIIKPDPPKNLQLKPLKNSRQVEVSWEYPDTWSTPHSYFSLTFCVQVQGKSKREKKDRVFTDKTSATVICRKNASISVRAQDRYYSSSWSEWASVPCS
T4 sequence (looked up) 2: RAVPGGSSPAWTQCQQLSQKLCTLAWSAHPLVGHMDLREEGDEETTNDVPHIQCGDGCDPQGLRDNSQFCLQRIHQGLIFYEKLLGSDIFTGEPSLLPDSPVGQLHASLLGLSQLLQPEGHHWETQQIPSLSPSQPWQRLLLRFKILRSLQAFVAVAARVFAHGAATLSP
Put plainly: SPR, bispecific held on captured IL-6 (~240 RU), human dimeric IL-23 as analyte (3-25 nM). The protocol: SPR of bispecific scFvs were carried out as previously described for measuring the anti-IL-6 moiety; however, protocol modifications were required in order to determine the binding kinetics of the anti-IL-23 scFv, 31A12. Briefly, IL-23 binding by the bispecific was performed by first immobilizing the bispecific with IL-6 as described, but at a constant density (˜240 RU). Binding and dissociation of a recombinant human dimeric IL-23 (34-8239, eBiosciences, San Diego, Calif.) was assayed in concentrations ranging from 3 to 25 nM using the same parameters detailed above.

Assay [10] addresses T2, 3×FLAG-IL-6. Kind of assay: SPR, 3×FLAG-IL-6 captured by anti-FLAG M2 on protein G, bispecific as analyte.
In assay [11] the target is T1, human IL-6. Put plainly: cell-based or functional assay. This is another data set of the same source.
The target in assay [12] is T4, human dimeric IL-23 (eBiosciences …). Kind of assay: cell-based or functional assay.

T2 sequence (chain, as listed by the source limits assumed): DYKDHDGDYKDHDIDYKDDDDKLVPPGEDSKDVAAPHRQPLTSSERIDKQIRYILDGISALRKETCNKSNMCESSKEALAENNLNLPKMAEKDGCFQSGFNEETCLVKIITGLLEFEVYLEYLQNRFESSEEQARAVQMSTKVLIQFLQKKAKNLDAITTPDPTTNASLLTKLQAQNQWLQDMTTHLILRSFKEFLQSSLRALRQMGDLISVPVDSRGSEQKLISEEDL

B1: 28D2 humanized scFv (mammalian expressed) (scFv)
scFv: DIQLTQSPSFLSASVGDRVTITCQASEDLFSSLAWYQQKPGKAPKLLIYSASTLASGVPSRFSGSGSGTDFTLTISSLQPEDFATYYCLGLYYYLTPDPIYGFGGGTKVEIKGGGGSGGGGSGGGGSGGGGSEVQLVESGGGLVQPGGSLRLSCTVSGLSLSKNAIAWVRQAPGKGLEWVGIIYAGGATTYASWAKGRFTISRDNSKNTLYLQMNSLRAEDTAVYYCAREYAGDSYYTGYTQLDLWGQGTLVTVSSGPPPPHHHHHH
notes: also called 28D2 scFv
A word on the Kd: it is the concentration at which binding is half-saturated. The term koff denotes the first-order rate constant of dissociation. As usually defined, the kon is the rate constant with which the complex forms. B1: the “EC50, inhibition of IL-6 induced B9 cell proliferation” value (shortened to “EC50, inhibition”) with human IL-6 [1] turned out to be 43 pg/mL. In the assay with 3×FLAG-IL-6 [2], this molecule came in with a Kd of 0.109 nM, a koff of 0.0001 s⁻¹ and a kon of 918000 M⁻¹ s⁻¹. In the assay with 3×FLAG-IL-6 [3], this molecule showed a Kd of 0.109 nM, a koff of 0.0001 s⁻¹ and a kon of 918000 M⁻¹ s⁻¹.

B2: 28D2-C Aha (scFv)
scFv: MAHHHHHHPPPPAAADIQLTQSPSFLSASVGDRVTITCQASEDLFSSLAWYQQKPGKAPKLLIYSASTLASGVPSRFSGSGSGTDFTLTISSLQPEDFATYYCLGLYYYLTPDPIYGFGGGTKVEIKGGGGSGGGGSGGGGSGGGGSEVQLVESGGGLVQPGGSLRLSCTVSGLSLSKNAIAWVRQAPGKGLEWVGIIYAGGATTYASWAKGRFTISRDNSKNTLYLQLNSLRAEDTAVYYCAREYAGDSYYTGYTQLDLWGQGTLVTVSSGM
modifications: azidohomoalanine (Aha) in place of the single Met, at the C terminus
In the assay with 3×FLAG-IL-6 [3], B2 had a Kd of 0.052 nM, a koff of 7.6e-05 s⁻¹ and a kon of 1.45e+06 M⁻¹ s⁻¹. In addition, in the assay with 3×FLAG-IL-6 [4], the Kd came to 0.0674 nM, the koff was 7.1e-05 s⁻¹ and the kon worked out at 1.05e+06 M⁻¹ s⁻¹.

B3: 13A8 humanized scFv (mammalian expressed) (scFv)
scFv: DIQLTQSPSFLSASVGDRVTITCQASQSISNELSWYQQKPGKAPKLLIYRASTLTSGVPSRFSGSGSGTEFTLTISSLQPEDFATYYCQQGYNSNDVDNVFGGGTKVEIKGGGGSGGGGSGGGGSGGGGSEVQLVESGGGLVQPGGSLRLSCTVSGIDLSSYDMSWVRQAPGKGLEWVGYIYTDSSTWYANWAKGRFTISRDNSKNTLYLQMNSLRAEDTAVYYCARGSTDYAFDTRLDLWGQGTLVTVSSGPPPPHHHHHH
notes: also called humanized scFv 13A8; mammalian 13A8 scFv
In the case of B3, the “EC50, neutralization of IL-6” value in the assay with human IL-6 [5] worked out at 59 pg/mL. Also, the “EC50, inhibition” value with human IL-6 [1] turned out to be 64 pg/mL. Further, in the assay with 3×FLAG-IL-6 [2], the Kd was 0.0982 nM, the koff stood at 8.64e-05 s⁻¹ and the kon is 876000 M⁻¹ s⁻¹.

B4: 9C8 humanized scFv (9C8 Hum scFv v3-1) (scFv)
scFv: DIQMTQSPSSVSASVGDRVTITCQASQSISNELSWYQQKPGKAPKLLIYRTSTLASGVPSRFSGSGSGTDFTLTISSLQPEDFATYYCQQGYNSNDVDNVFGGGTKVEIKGGGGSGGGGSGGGGSGGGGSEVQLVESGGGLVQPGGSLRLSCTVSGIDLSSYDMSWVRQAPGKGLEWVGYIYTDSSTYYANWAKGRFTISRDNSKNTLYLQMNSLRAEDTAVYYCARGSTDYAFDTRLDLWGQGTLVTVSSGPPPPPHHHHHH
notes: the sentence before it names 9C8 v3-1; purified by 6×His tag; also called 9C8 scFv v3-1; 9C8v3-1
As for B4, in the assay with human IL-6 [1], the “EC50, inhibition” value turned out to be 319 pg/mL. In the assay with 3×FLAG-IL-6 [2], this molecule registered a Kd of 0.089 nM, a koff of 4.03e-05 s⁻¹ and a kon of 447000 M⁻¹ s⁻¹.

B5: 13A8c-PEG20 (scFv)
scFv: DIQLTQSPSFLSASVGDRVTITCQASQSISNELSWYQQKPGKAPKLLIYRASTLTSGVPSRFSGSGSGTEFTLTISSLQPEDFATYYCQQGYNSNDVDNVFGGGTKVEIKGGGGSGGGGSGGGGSGGGGSEVQLVESGGGLVQPGGSLRLSCTVSGIDLSSYDLSWVRQAPGKGLEWVGYIYTDSSTWYANWAKGRFTISRDNSKNTLYLQLNSLRAEDTAVYYCARGSTDYAFDTRLDLWGQGTLVTVSS
modifications: C-terminal azidohomoalanine (Aha) conjugated to 20 kDa linear PEG bis-alkyne
Regarding B5, the “EC50 (pg/mL) of the folded scFv-PEG” value with human IL-6 [6] was 93 pg/mL.

B6: 13A8L-PEG20 (scFv)
scFv: DIQLTQSPSFLSASVGDRVTITCQASQSISNELSWYQQKPGKAPKLLIYRASTLTSGVPSRFSGSGSGTEFTLTISSLQPEDFATYYCQQGYNSNDVDNVFGGGTKVEIKGGGGSGGGGSGGGGSGGGGSEVQLVESGGGLVQPGGSLRLSCTVSGIDLSSYDLSWVRQAPGKGLEWVGYIYTDSSTWYANWAKGRFTISRDNSKNTLYLQLNSLRAEDTAVYYCARGSTDYAFDTRLDLWGQGTLVTVSS
modifications: azidohomoalanine (Aha) in the linker (13A8L) conjugated to 20 kDa linear PEG bis-alkyne
For B6, in the assay with human IL-6 [6], the “EC50 (pg/mL) of the folded scFv-PEG” value is 278 pg/mL.

B7: 13A8n-PEG20 (scFv)
scFv: DIQLTQSPSFLSASVGDRVTITCQASQSISNELSWYQQKPGKAPKLLIYRASTLTSGVPSRFSGSGSGTEFTLTISSLQPEDFATYYCQQGYNSNDVDNVFGGGTKVEIKGGGGSGGGGSGGGGSGGGGSEVQLVESGGGLVQPGGSLRLSCTVSGIDLSSYDLSWVRQAPGKGLEWVGYIYTDSSTWYANWAKGRFTISRDNSKNTLYLQLNSLRAEDTAVYYCARGSTDYAFDTRLDLWGQGTLVTVSS
modifications: N-terminal azidohomoalanine (Aha) conjugated to 20 kDa linear PEG bis-alkyne
As to B7, the “EC50 (pg/mL) of the folded scFv-PEG” value in the assay with human IL-6 [6] was determined as 1980 pg/mL.

B8: 31A12c-PEG-13A8c bispecific (bispecific antibody)
scFv 1: DIQLTQSPSFLSASVGDRVTITCQASEDIESYLAWYQQKPGKAPKLLIYSASTLTSGVPSRFSGSGSGTEFTLTISSLQPEDFATYYCLGADDTTTVFGGGTKVEIKGGGGSGGGGSGGGGSGGGGSEVQLVESGGGLVQPGGSLRLSCTASGFSLSSYWLTWVRQAPGKGLEWVGTIATSSTYYASWAKGRFTISRDNSKNTLYLQLNSLRAEDTAVYYCARGLTTDYDLDLWGQGTLVTVSS
scFv 2: DIQLTQSPSFLSASVGDRVTITCQASQSISNELSWYQQKPGKAPKLLIYRASTLTSGVPSRFSGSGSGTEFTLTISSLQPEDFATYYCQQGYNSNDVDNVFGGGTKVEIKGGGGSGGGGSGGGGSGGGGSEVQLVESGGGLVQPGGSLRLSCTVSGIDLSSYDLSWVRQAPGKGLEWVGYIYTDSSTWYANWAKGRFTISRDNSKNTLYLQLNSLRAEDTAVYYCARGSTDYAFDTRLDLWGQGTLVTVSS
modifications: C-terminal azidohomoalanine (Aha) joined through a linear 20 kDa PEG to the Aha of the other scFv
notes: also called 31A12c-20KPEG-13A8c; 13A8c-PEG-31A12c
For B8, the “IC50 (read off the curve) (interferon-gamma from NK92 cells, OD450)” value with monkey IL-12 (macaque) [7] was approximately 10 ng/mL. In addition, the “IC50 (read off the curve)” value with monkey IL-12 (macaque) [8] was ~10 ng/mL and ~20 ng/mL. Moreover, in assay [9], the Kd was 0.0918 nM, the koff stood at 7.11e-05 s⁻¹ and the kon came out at 773000 M⁻¹ s⁻¹. In the assay with 3×FLAG-IL-6 [10], binding was put at a Kd of 0.215 nM, the koff is 5.14e-05 s⁻¹ and the kon was found to be 290000 M⁻¹ s⁻¹. Besides, in the assay with human IL-6 [11], the “Anti IL-6 EC50, batch A” value came to 82 pg/mL; the “Anti IL-6 EC50, batch B” value is 64 pg/mL; the “Anti IL-6 EC50, batch C” value was determined as 136 pg/mL. In addition, in [12], the “Anti IL-23 EC50, batch A” value is 2940 pg/mL; the “Anti IL-23 EC50, batch B” value stood at 1190 pg/mL; the “Anti IL-23 EC50, batch C” value was determined as 2040 pg/mL.
